Experiment: yeast display, Sf9 membrane polyspecificity reagent, FACS + sequencing; frameworks hold sequencing errors
Method in brief: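 Sorting gates, low and high (top ~1%), were placed on anti-HA fluorescence to track expression and on streptavidin fluorescence to track reagent binding. A clone's polyreactivity label is taken from the gate it came out of. The reagent was 10% biotinylated, detergent-solubilized Sf9 membrane, applied for 1 hour at 4 °C to galactose-induced yeast display cells.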

Sequence | polyreactivity (PSR sort gate)
QVQLVESGGGLVQAGGSLRLSCAASGRTLRLYAMGWYRPAPGKERELVASITGRGGSTYYADSVKGRFTISRDNAKNTVYLQMNSLKPEDTAVYYCAKLPLSTAMGYWGQGTQVTVSS | low polyreactivity
QVQLVESGGGLVQAGGSLRLSCAASGRTFGQNAMGWYRQAPGKERELVAAISASGSNTYYADSVKGRFTISRDNAKNTVYVQMNSLKPEDTAVYYCAKQVYRPGQQSRYDYWGQGTQVTVSS | low polyreactivity
QVQLVESGGGLVQAGGSLRLSCAASGSIFSYYVMGWYRQAPGKERELVAAISWSGGSTYYADSVKGRFTISRDNAKNTVYLQMNSLKPEDTAVYYCAAGTYPYYWGQGTQVTVSS | low polyreactivity
QVQLVESGGGLVQAGGSLRLSCAASGSIFLTNVMGWYRQAPGKERELVAAISSGGNTYYADSVKGRFTISRDNAKNTVYLQMNSLKPEDTAVYYCAVRYRYDYWGQGTQVTVSS | high polyreactivity
QVQLVESGGGLVQAGGSLRLSCAASGLTFYRYTMGWYRQAPGKERELVAAIRSSGGRTYYADSVKGRFTISRDNAKNTVYLQKNSLKPEDTAVYYCNAVRYNSVGYVYWGQGTQVTVSS | high polyreactivity
QVQLVESGGGLVQAGGSLRLSCAASGRIFQYYTMGWYRQAPGKERELVAAITYSGGDTRYADSVKGRFTISRDNAKNTVYLQMNSLKPEDTAVYYCAAHYFHQYQYGVWTYGYWGHGTQVTVSS | low polyreactivity
QVQLVESGGGLVQAGGSLRLSCAASGFTFTGYAMGWYRQAPGKERELVAAINRSGGTTYYADSVKGRFTISRDNAKNTVYLQMNSLKPEDTAVFYCAAFPSGRHRGDYWGQGTQVTVSS | high polyreactivity
QVQLVESGGGLVQAGGSLRLSCAASGSTLIANAMGWYRQAPGKERELVAGITYRGGDITTYADSVKGSFTNSSDNANNTVYLQINTLKPEDTAVYYCAAPVVWPTWARGGYWGQGTQVTVSS | low polyreactivity
QVQLVESGGGLVQAGGSLRLSCAASGRILTSNAMGWYRQAPGKERELVAAITYSGDSTYYADSVKGRFTISRDTAKNTVYLQMNSLKPEDTEVYYCAADVLKHFYSFGDERGFPFDYWGQGTQVTVSS | low polyreactivity
QVQLEESGGGVVQAGGSLRLSCAASGRTFRWYAMGWYRQAPGKERELVATINSGGTTNYADSVKGRFTISRDNAKNTVYLQMNSLKPEDTAVYYCAATNRGPGHDYWGQGTQVTVSS | low polyreactivity
QVQLVESGGGLVQAGGSLRLSCAASGRILYPYAMGWYRQAPGKERELVAAITFIGGTTYYADSVKGRFTLSRDNAKNTLYLQRNSLKQEDTAVYYCSTAGPYGSRNDYWGQGTQVTVSS | high polyreactivity
QVQLVESAGGLVQAGGSLRLSCAASGSTFVWYAMGGYRQAPGKERELVDAINFGGTTYYADSVKGRFRISRYNAKNTVYLQLNSLKPEDTAVYYCATEYDYGSWFPDGWGIFDYWGQGTQVTVSS | low polyreactivity
QVQLVESGGGLVQAGGSLRLSCAASGSIFRRNAMGWYRQAPGKERELVAAISYSGGSTYYADSVKGRFTISRDNAKNTVYLQMNSLKPEDTAVYYCAADLYYGFGGYYYWGQGTQVTVSS | high polyreactivity
QVQLVESGGGLVQAGGSLRLSCAASGGTFYRNAMGWSRQAPGKERELVAAINYRGDRTYYADSVKGRFTISRDNAKNTVYLQMNSLKPEDTAVYYCAADSYPAYLGFVGFDYWGQGTQVTVSS | low polyreactivity
QVQLVESGGGLVQAGGILRLSCAASGRTFNSYAMGWYRQAPGKERELVAAISWIGGSTYYADSVKGRFTISRDNAKNTVYLQMNSLKPEDTAVYYCAADSYRFYSGYYYWGQGTQVTVSS | low polyreactivity
QVQLVESGGGLVQAGGSLRLSCAASGSIFGPYAMGWYRQAPGKERELVAAISTRGGRTYYADSVKGRFTISRDNAKNTVYLQMNSLKPEDTAVYYCNARRSDSRSYDYWGQGTQVTVSS | high polyreactivity
QVQLVESGGGLVQAGGSLRLSCAASGSIFRNYAMGWYRQAPGKERELVATISWNGGRTHYADSVKGRFTISRDNAKNTVYLQMNSLKPVDTAVYYCNKDAASFRHFYGYGYWGQGTQVTVSS | low polyreactivity
QVQLVESGGGLVQAGGSLRLSCAASGFTFNKYAMGWYRQAPGTERELVAAISSRGGSPYYADSVKGRFTISRDNAKNTVYLQMNSLKPEDTAVYYCAVYTIGYLAWYQKFDYWGQGTQVTVSS | high polyreactivity
QVQLVESGGGLVQAGRSLRLSCAASGRTFDEYAMGWYRQAPGKERELVAAISARGGRTYYADSVKGRFTISRDNAKNTVYLQMNSLKPEDTAVYYCAAAGYITRYDRYDYWGQGTQVTVSS | high polyreactivity
QVHLVESGGGLVQAGGSLRLTCAASGITLDGNAMGWYRQAPGKERELVAAITSGGGTNYADSVKGRFTISRDNAKNTVYLQMNSLKPVDTAVYYCCADKPNDGVGRLYDYWGQGTQVTVSS | low polyreactivity
QVQLVESGGGLVQAGGSLRLSCAASGRIIYGYARGWYRQAPGKERELVAAISASGGRTYYADSVKGRFTISRDNAKNTVYLQMNSLKPEDTAVYYCARARFYWLTQWSYDYWGQGTQVTVSS | high polyreactivity

Sequence | polyreactivity (PSR sort gate)
QVQLVESGGGLVQAGGSLRLSCAASGIIFKSYVMGWYRQAPGKEREFVARITYRGGSTYYADSVKGRFTISRDNAKNTVYLQMNSLKPEDTAVYYCNKKNPQDLTENGYWGQGTQVTVSS | high polyreactivity
QVQLVESGGGLVQAGGSLRLSCAASGSTSDINAMGWYRQAPGKERELVAVITFSGGSTNYADSVKGRFTISRDNAKNTVYLQMNSLKPEDTAVYYCSTSGQLYYSRNFDYWGQGTQVTVSS | low polyreactivity
QVQLVESGGGLVQAGGRLRLSCAAYGRTFSDYTMGWYRQAPGKERELVAAISRRGGTTYYADSVKGRFTISRDNAKNTVYLQMNSLKPEDTAVYYCAAKRYRPKYEYDYWGQGTQVTVSS | high polyreactivity
QVQLVESGGGLVKAGGSLRLSCAASGRNFSQNVMGWYRQAPGKERELVADISRGGSTNYADSVKGRFTISRDNAKNSVFLQMNSLKPEDTAVYYCAARLFWYYYHPYYYWGQGTQVTVSS | high polyreactivity
QVQLVESGGGLVQAGGSLRLSCAASGNIFGFYTMGWNRQAPGKERELVAAIRSRGGSTNYADSVKGRFTISRDTAKNTVYLQMNSLKPEDTAVYYCNKDGTWLARAVTYADFDYWGQGTQVTVSS | low polyreactivity
QVQLVESGGGLVQAGGSRRLSCAASGFFFRTYSMGWYRQAPGTERELVAAISSSSGSTYYADSVKGRFTISRDNAKNTVYLQMNSLKPEDTAVYYCAAYSLSQKPRGYNYWGQGTQVTVSS | high polyreactivity
QVQLVESWGGLVQAGGSLRLSCAASGGIFWNYAMGWYRQAPGKERELVATISSGGSTKYADSVKGRFTISRDNAKNTVYLQMNSLKPEDTAVYYCNKVFPNLYIYVVRGLIEMDYWGQGTQVTVSS | low polyreactivity
QVQLVESGGGLVQAGVSLRLSCAASGRTFSYYVMGWYRQAPGKETELVAAITTRTSSTYYADSVKGRFTISRDNAKNTVYLQMNSLKPEDTAVYYCARRPRARAYNYWGQGTQVTVSS | high polyreactivity
QVQLVESGGGLVQAGGSLRLSCAASGSTFVQNDMGWYIPAPGKERELVAAISRTGGSTYYADSVKGRFTISRDNAKNTVYLQMNSLKPEDTAVYYCARRYYYQYRYDYWGQGTQVTVSS | high polyreactivity
QVQLVESGGGLLQAGGSLRLSCAASGRTSDYYAMGWYRQAPGKERELVAAISRSGGRTYYADSVKGRFTISRDNAKNSVYFQMNSLQPEDTAVYYCNAGGTPYVLDEYWGQGTQVTVSS | high polyreactivity
QVQLVESGGGLVQAGGSLRLSCAASGSTFVYYTMGWYRPAPGKERELVAAITSGTSTNYADSVKGRFTISRDNAKNTVYLQMNSLKPEDTAVYDCNAQRRGTYYWGQGTQVTVSS | high polyreactivity
QVQLVESGGGLVQAGGSLRLSCAASGHIFLGNVMGWYRQAPGKERELVAAISKRGGRTYYADSVKGRFTISRDNAKNTVYLQMNSLKPEDTAVYYCAAVIDSREEYWGQGTQVTVSS | high polyreactivity
QVQLVESGGGLVQAGGSLRLSCAASGFTFDSNAMGWYRQAPGKERELVAAISRRGGSTYYADSVKGRFTISRDNAKNTVYLQMNSLKPEDTAVYYCNKESWRIGRYQYDSWGQGTQVTVSS | high polyreactivity
QVQLVESGGGLDQAGGSLRLSSAASGLTFVTYAMGWYRQAPGTERELVAAISYSGGSTYYADSVKGRFTISRDNAKNTVYLQMNSLKPEDTAVYYCNARSPQPDGRPPYNYWGQGTQVTVSS | high polyreactivity
QVQLVESGGGLVQAGGSLRLSCAASGITFYIYAMGWYRQAPGKEREFVASITWRGGSTYYADSVKGRFTISRDNAKNTVYLQMNSLKPEDTAVYYCNAEYSSSRYWYYDYWGQGTQVTVSS | high polyreactivity
QVQHVESGGGLVQAGGSLRLSCAASGSTFLYYAMGWSRQAPGKERELVARITTRVGRTYYADSVKGRFTISRDNAKNTVYLQMNSLKPEDTAVYYCAAYPDYSYYYWGQGTQVTVSS | high polyreactivity
QVQLVDSGGGLVQAGGSLRLSCAASGFTFWRYVMGWYRQAPGKERELVAAISGRGSRTFYADSVKGRFTISRDNAKNTVYLQMNSLKPEDTAVYYCNAYPGTSGTLYVTPYDYWGQGSQVTVSS | high polyreactivity
QVQLVESGGGLVQAGGSLRISCAASGFIFKKNAMGWYRQAPGKERELVAAITSSGGSTYYADSVKGRFTISRDNAKNTVYFQMNSLKPEDSAVYYCARDKEQQGYRLFGYWGQGTQVTVSS | high polyreactivity
QVQLVESGGGLVQAGGSLRLSCAASGSTFGDYAMGWYRQAPGKERELVAAISFSDGSTYYADSVKGRFTISRDNAKNTVYLQMNSLKPEDTAVYYCAKVDYWVYRWYTYDYWGQGTQVTVSS | low polyreactivity
QVQLGESGGGLVQAGGSLRLSCAASGSTFYRYAMGWYRQAPGKERELVAAITRGGGNTYYADSVKGRFTISRDNAKNTVYLQMNSLKPEDTAVYYCNTDPTLRSRVGIWGFDYWGQGTQVTVSS | high polyreactivity

— the nanobody polyreactivity screen of Harvey et al. (2022)
